Reference: paper PMC7333892, “Identification of a PGXPP degron motif in dishevelled and structural basis for its binding to the E3 ligase KLHL12” (Open Biology, 2020)
“Also recorded” adds a separate entry of the source. Values belong to the molecule of their own block, whether it stands above or below them. Where no end group is shown, it is not given here. The star is where a group is joined. FITC = O=C1OC2(c3ccc(O)cc3Oc3cc(O)ccc32)c2ccc(NC(=S)*)cc21

Tests used:
DVL1 = DVL1 stabilization by MLN4924 in HEK293T cells co-transfected with KLHL12; type: cell-based; details: western blot
Description: (§1) We further investigated whether the ‘PGGPP' motif regulates the KLHL12-dependent degradation of DVL1. WT and mutant DVL1 constructs were therefore transfected into HEK293T cells in the presence or absence of full-length KLHL12. […] By contrast, the levels of the DVL1 mutants were unchanged by KLHL12 co-expression.
(§2) Full-length Flag-KLHL12 and HA-DVL1 constructs were transfected into HEK293T cells at 60% confluency with polyethylenimine. 40 h after transfection, cells were treated with cycloheximide (CHX) for 1 h or MLN4924 for 4 h and then harvested and lysed. Protein levels were analysed by Western blotting (anti-Flag antibody, Sigma-Aldrich, F1804; RRID:AB_262044 and anti-HA antibody, Biolegend, 901501; RRID:AB_2565006).

KLHL12 Kelch domain = target: T1, KLHL12 Kelch domain (Homo sapiens, UniProt Q53G59); assay: Fluorescence polarization peptide binding to KLHL12; details: N-terminal FITC-labelled peptide 40 nM, 50 mM HEPES pH 7.5, 300 mM NaCl, 0.5 mM TCEP, 0.01% Triton-X, mean, n = 3
T1 construct: Human KLHL12 Kelch domain (Uniprot Q53G59-1, residues 268–567); His6 (N); made in house; host or cells: E. coli BL21(DE3)-R3-pRARE, vector pNIC28-Bsa4 (Addgene_38908)
T1 sequence (Q53G59 268-567): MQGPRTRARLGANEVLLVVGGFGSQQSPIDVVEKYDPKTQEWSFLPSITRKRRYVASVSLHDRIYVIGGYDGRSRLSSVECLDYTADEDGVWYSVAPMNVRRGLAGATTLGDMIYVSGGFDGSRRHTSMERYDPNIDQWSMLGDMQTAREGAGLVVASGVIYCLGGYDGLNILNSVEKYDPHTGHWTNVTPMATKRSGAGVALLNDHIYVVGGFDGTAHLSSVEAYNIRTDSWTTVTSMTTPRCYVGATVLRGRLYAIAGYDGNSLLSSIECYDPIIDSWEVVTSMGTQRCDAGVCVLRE
Description: Human KLHL12 Kelch domain (Uniprot Q53G59-1, residues 268–567) and KLHL7 Kelch domain (Uniprot Q8IXQ5-1, residues 283–586) were expressed from the vector pNIC28-Bsa4 in BL21(DE3)-R3-pRARE cells and purified by nickel affinity and size exclusion chromatography as described previously. Both plasmids are deposited in addgene (RRID:Addgene_38908 and RRID:Addgene_39023, respectively).
Fluorescence polarization assays were performed in 384-well plates using a Synergy 2 microplate reader (BioTek) with excitation and emission wavelengths of 485 nm and 528 nm, respectively. Peptides were synthesized, N-terminally labelled with FITC and purified by Tufts University Core Services (Boston, MA). Binding assays were performed in 10 µl volume at a constant labelled peptide concentration of 40 nM and indicated Kelch domain protein concentrations in a buffer containing 50 mM HEPES, pH 7.5, 300 mM NaCl, 0.5 mM TCEP and 0.01% Triton-X. Binding data were corrected for background of the free labelled peptides (no protein). For KD determination, data were fitted to a hyperbolic function using Sigma Plot software (Systat Software, San Jose CA). KD values represent mean ± S.E. (n = 3).

[1] = tested on: full-length Flag-tagged KLHL12; assay: Co-immunoprecipitation of HA-DVL1 variants with Flag-KLHL12 in HEK293T cells; type: cell-based; details: MLN4924 4 h, anti-Flag immunoprecipitation, western blot
Description: To validate the identified ‘PGGPP' sequence as degron motif for DVL1 recruitment and degradation by the KLHL12, we tested the binding, ubiquitination and stability of DVL1 in HEK293T cells. Two variants of full-length HA-tagged DVL1 were prepared in which the 657-‘PPGGPP' motif was either mutated to ‘AAAAAA' or deleted. Immunoprecipitation of the complex using full-length Flag-tagged KLHL12 was performed in cells treated with the neddylation inhibitor MLN4924 to ensure the stability of all transfected DVL1 variants. […] To confirm that the interaction promoted DVL1 ubiquitination, we next transfected Flag-tagged KLHL12 and HA-DVL1 variants into cells pretreated with the proteasome inhibitor MG132. DVL1 was immunoprecipitated by anti-HA agarose and its ubiquitination status probed by immunoblotting for the presence of high molecular weight poly-ubiquitin conjugates. A marked reduction in the ubiquitination of the two DVL1 mutants was observed compared to wild-type consistent with the importance of the ‘PGGPP' motif for KLHL12 recruitment (figure 5b). […]
Full-length DVL1 variants (Uniprot O14640-1) and KLHL12 were subcloned into a pcDNA3 vector, with N-terminal HA tag and Flag tag, respectively. […] Results were analysed using western blotting (Anti-Flag antibody, Sigma-Aldrich, F1804; RRID:AB_262044; Anti-HA antibody, Biolegend, 901501; RRID:AB_2565006).

full-length KLHL12 = assay: Stability assay of DVL1 variants with or without KLHL12 in HEK293T cells; type: cell-based; details: KLHL12 co-expression versus DVL1 alone, cycloheximide 1 h, western blot, GAPDH loading control
Description: as §1, §2

[2] = target: T2, Human KLHL12 Kelch domain (residues 268-567) (human, UniProt Q53G59-1 268-567); assay: peptide or protein array; initial DVL1 SPOT array: 20-mer peptides on cellulose membrane, incubated with 0.4 µM His6-tagged Kelch domain protein in PBS for 1 h at 4°C, bound protein detected with HRP-conjugated anti-His antibody; details: both partners purified
T2 construct: KLHL12 Kelch domain, human, Uniprot Q53G59-1, residues 268-567; the structure traces residues 279-567; The His6 tag is kept in the SPOT arrays (detected with anti-His antibody); Expressed from the vector pNIC28-Bsa4; also called 6 x His-KLHL12 Kelch domain; His6-tagged KLHL12 Kelch domain
T2 sequence (looked up): T1 sequence (Q53G59 268-567)

[3] = target: T2, Human KLHL12 Kelch domain (residues …); assay: fluorescence polarisation; 40 nM FITC-labelled peptide, Kelch domain protein titrated; 50 mM HEPES pH 7.5, 300 mM NaCl, 0.5 mM TCEP, 0.01% Triton-X; hyperbolic fit, n = 3; details: both partners purified
KLHL12 = details: parallel study, ref [36] Zhao et al.; cited from earlier work
Source text: The omitted proline position is substituted by a glycine or alanine in pa ...

Molecule: NS(=O)(=O)OC[C@@H]1C[C@@H](n2ccc3c(N[C@H]4CCc5ccccc54)ncnc32)C[C@@H]1O [MLN4924]
- stability of DVL1 WT on MLN4924 (DVL1; HEK293T cells co-transfected with DVL1 WT and KLHL12, MLN4924 4 h): stabilized DVL1 WT; also recorded: rescued the stability of DVL1 WT
- stability of DVL1 mutants on MLN4924 (DVL1; HEK293T cells co-transfected with DVL1 mutants and KLHL12, MLN4924 4 h): not DVL1 mutants

- Kd (KLHL12 Kelch domain): 22.3 µM
Molecule: CC(C)C[C@H](NC(=O)[C@H](CCC(=O)O)NC(=O)[C@H](CCCNC(=N)N)NC(=O)[C@@H](NC(=O)[C@@H]1CCCN1C(=O)[C@@H]1CCCN1C(=O)CNC(=O)CNC(=O)[C@@H]1CCCN1C(=O)[C@@H]1CCCN1C(=O)CNC(=O)CNC(=O)[C@@H](NC(=O)[C@@H](NC(=O)[C@@H](NC(=O)[C@H](Cc1ccc(O)cc1)NC(=O)[C@H](C)N)[C@@H](C)O)C(C)C)C(C)C)C(C)C)C(=O)N[C@@H](C)C(=O)N[C@@H](C)C(=O)N[C@H](C(=O)O)C(C)C [Spot A13]

B1: DVL1 WT: full-length HA-tagged wild-type DVL1 expressed in cells (protein)
chain: MAETKIIYHMDEEETPYLVKLPVAPERVTLADFKNVLSNRPVHAYKFFFKSMDQDFGVVKEEIFDDNAKLPCFNGRVVSWLVLAEGAHSDAGSQGTDSHTDLPPPLERTGGIGDSRPPSFHPNVASSRDGMDNETGTESMVSHRRERARRRNREEAARTNGHPRGDRRRDVGLPPDSASTALSSELESSSFVDSDEDGSTSRLSSSTEQSTSSRLIRKHKRRRRKQRLRQADRASSFSSITDSTMSLNIVTVTLNMERHHFLGISIVGQSNDRGDGGIYIGSIMKGGAVAADGRIEPGDMLLQVNDVNFENMSNDDAVRVLREIVSQTGPISLTVAKCWDPTPRSYFTVPRADPVRPIDPAAWLSHTAALTGALPRYGTSPCSSAVTRTSSSSLTSSVPGAPQLEEAPLTVKSDMSAVVRVMQLPDSGLEIRDRMWLKITIANAVIGADVVDWLYTHVEGFKERREARKYASSLLKHGFLRHTVNKITFSEQCYYVFGDLCSNLATLNLNSGSSGTSDQDTLAPLPHPAAPWPLGQGYPYQYPGPPPCFPPAYQDPGFSYGSGSTGSQQSEGSKSSGSTRSSRRAPGREKERRAAGAGGSGSESDHTAPSGVGSSWRERPAGQLSRGSSPRSQASATAPGLPPPHPTTKAYTVVGGPPGGPPVRELAAVPPELTGSRQSFQKAMGNPCEFFVDIM
modifications: left off: HA, N-terminal, kept
notes: full-length HA-tagged wild-type DVL1 expressed in cells
- binding of DVL1 to KLHL12 (immunoprecipitation) [1]: bound robustly
- binding of DVL1 to KLHL12 (immunoprecipitation) ([1]; listed as Wild-type (WT) DVL1): bound robustly to KLHL12
- DVL1 protein level / stability (full-length KLHL12): striking reduction in the DVL1 protein level

- binding result [2]: binds
B2: DVL1 20-mer peptide, residues 650-669, printed on the SPOT array (spot A13) (peptide, UniProt O14640-1 650-669, looked up)
peptide: AYTVVGGPPGGPPVRELAAV
notes: source: synthetic peptide, synthesized directly on a modified cellulose membrane with a polyethylglycol linker (SPOT)

- Kd [3]: 22.3 µM
B3: FITC-labelled DVL1 peptide, residues 650-669 (peptide, UniProt O14640-1 650-669, looked up)
peptide: {FITC}-AYTVVGGPPGGPPVRELAAV
notes: source: synthetic peptide (Tufts University Core Services), purified

B4: DVL3 (Zhao et al.): DVL3, KLHL12 binding by NMR in a parallel study by Zhao et al. (protein, UniProt Q92997 1-716, looked up)
Segment polarity protein …: MGETKIIYHLDGQETPYLVKLPLPAERVTLADFKGVLQRPSYKFFFKSMDDDFGVVKEEISDDNAKLPCFNGRVVSWLVSAEGSHPDPAPFCADNPSELPPPMERTGGIGDSRPPSFHPHAGGGSQENLDNDTETDSLVSAQRERPRRRDGPEHATRLNGTAKGERRREPGGYDSSSTLMSSELETTSFFDSDEDDSTSRFSSSTEQSSASRLMRRHKRRRRKQKVSRIERSSSFSSITDSTMSLNIITVTLNMEKYNFLGISIVGQSNERGDGGIYIGSIMKGGAVAADGRIEPGDMLLQVNEINFENMSNDDAVRVLREIVHKPGPITLTVAKCWDPSPRGCFTLPRSEPIRPIDPAAWVSHTAAMTGTFPAYGMSPSLSTITSTSSSITSSIPDTERLDDFHLSIHSDMAAIVKAMASPESGLEVRDRMWLKITIPNAFIGSDVVDWLYHNVEGFTDRREARKYASNLLKAGFIRHTVNKITFSEQCYYIFGDLCGNMANLSLHDHDGSSGASDQDTLAPLPHPGAAPWPMAFPYQYPPPPHPYNPHPGFPELGYSYGGGSASSQHSEGSRSSGSNRSGSDRRKEKDPKAGDSKSGGSGSESDHTTRSSLRGPRERAPSERSGPAASEHSHRSHHSLASSLRSHHTHPSYGPPGVPPLYGPPMLMMPPPPAAMGPPGAPPGRDLASVPPELTASRQSFRMAMGNPSEFFVDVM
- binding to KLHL12 by NMR (KLHL12): confirmed the binding
